Values quoted from earlier work as cited in patent US9919022B2, “Use of angiotensin II (AII) receptor agonists to prevent or reduce hemodialysis-associated skeletal muscle cramps” (priority 2015, dated 2018).
Like-named read-outs stand apart in the source and are kept apart here. Values belong to the molecule of their own block, whether it stands above or below them.

- serum half-lives (serum): less than one
Molecule: CC[C@H](C)[C@H](NC(=O)[C@H](Cc1ccc(O)cc1)NC(=O)[C@@H](N)C(C)C)C(=O)N[C@@H](Cc1cnc[nH]1)C(=O)N1CCC[C@H]1C(=O)N[C@@H](Cc1ccccc1)C(=O)O [angiotensin IV, Val-Tyr-Ile-His-Pro-Phe]

Molecule: Arg-Val-Tyr-Ile-His-Pro-Phe [Angiotensin III]
- serum half-lives (in vivo): less than one

Molecule: H-Asp-Arg-Val-Tyr-Ile-His-Pro-Phe-OH (H-DRVYIHPF-OH; listed as Homo sapiens) [angiotensin II]
- terminal serum half-life (serum): less than 30 minutes
